# Test results reported in patent US20230213527A1 (QUANTUM SI, published 2023).
# Square brackets hold non-standard residues; d marks the D form. Primed or numbered codes have the meaning given here. Ends that are not written are not given here. Lys(N3) = [N-]=[N+]=NCCCC[C@H](N)C(=O)O; Met(O) = CS(=O)CC[C@H](N)C(=O)O; FITC′ = not defined here
# T1: … (SEQ ID NO: 801), state with N-terminal methionine (MFAYPDDD) (not fully specified (C-terminus); also: C-terminal azidolysine conjugated to DNA-streptavidin linker)
# T1 construct: residue range inferred from the recognized N-terminal residue
# T1 peptide: MFAYPDDD
# T2: RLMoFAYPDDD (SEQ ID NO: 858), state with N-terminal methionine sulfoxide (MoFAYPDDD) (also: C-terminal azidolysine conjugated to DNA-streptavidin linker)
# T2 construct: residue range inferred
# T2 peptide: [Met(O)]FAYPDDD[Lys(N3)]
# T3: labeled peptide with N-terminal methionine (XAKLDEESILKQK-FITC, SEQ ID NO: 833, X = M)
# T3 peptide: MAKLDEESILKQK-{FITC′}
# T4: … (SEQ ID NO: 798), state with N-terminal leucine (LAFAYPDDD) (not fully specified (C-terminus); also: C-terminal azidolysine conjugated to DNA-streptavidin linker)
# T4 construct: residue range inferred from the recognized N-terminal residue
# T4 peptide: LAFAYPDDD
# T5: … (SEQ ID NO: 799), state with N-terminal leucine (LIFAYPDDD) (not fully specified (C-terminus); also: C-terminal azidolysine conjugated to DNA-streptavidin linker)
# T5 construct: residue range inferred from the recognized N-terminal residue
# T5 peptide: LIFAYPDDD
# T6: … (SEQ ID NO: 800), state with N-terminal leucine (LVFAYPDDD) (not fully specified (C-terminus); also: C-terminal azidolysine conjugated to DNA-streptavidin linker)
# T6 construct: residue range inferred from the recognized N-terminal residue
# T6 peptide: LVFAYPDDD
# T7: synthetic peptide … (SEQ ID NO: 794), state with N-terminal leucine (LIFAG) (human, not fully specified (C-terminus); also: C-terminal azidolysine conjugated to DNA-streptavidin linker)
# T7 construct: residue range inferred from the recognized N-terminal residue
# T7 peptide: LIFAG
# T8: synthetic peptide … (SEQ ID NO: 794), state with N-terminal isoleucine (IFAG) (human, not fully specified (C-terminus); also: C-terminal azidolysine conjugated to DNA-streptavidin linker)
# T8 construct: residue range inferred from the recognized N-terminal residue
# T8 peptide: IFAG
# B1: PS961 (designed binder)
# chain: MPTAASATESAIEDTPAPARPEVDGRTKPKRQPRYHVVLWDDDDHTYQYVVVMLRSLFGHPPSRGYRMAKEMDTQGRVIVLTTTREHAELKRDQIHAFGRDRLLARSKGSMKASIEAEE
# notes: also called PS961 (L, I, V); PS961 (LIV)
# Legend:
# [1] = molecular target: T1, … (SEQ ID NO: 801), state with …; assay: single-molecule on-chip dynamic sequencing
# [2] = molecular target: T2, RLMoFAYPDDD (SEQ ID NO: 858), state …; assay: single-molecule on-chip dynamic sequencing
# [3] = molecular target: T3, labeled peptide with N-terminal …; assay: fluorescence polarization titration, FITC-labeled peptide (FIG. 9D)
# Experimental: As an example, methionine oxidation was examined. The thioether moiety of the methionine side chain is susceptible to oxidation during peptide synthesis and sequencing. […] It was determined computationally that methionine sulfoxide is highly unfavorable in the PS961 NAA binding pocket and that non-polar residues are preferred at P2 (FIG. 9E). The synthetic peptide […] (SEQ ID NO: 801) was sequenced, and two populations of traces with distinct kinetic signatures were observed—a first population containing leucine recognition with median PD of 0.86 s, and a second population with median PD of 0.35 s (FIG. 4C).
# Binding affinity was measured by polarization using a labeled peptide. The polarization response and total intensity measurements were carried out at 20° C. on a microplate fluorometer with 480 nm excitation and 530 nm emission. The interaction of recognizer with labeled peptide containing a target N-terminal residue (XAKLDEESILKQK-FITC (SEQ ID NO: 833)) was performed in PBS buffer at pH 7.4 and readings were collected after 30 min. Multiple analyses were performed at increasing recognizer concentration at a fixed concentration of a target peptide to obtain a titration curve. An equilibrium polarization response at each concentration was plotted and fit to calculate the KD.
# [4] = molecular target: T4, … (SEQ ID NO: 798), state with …; assay: single-molecule on-chip dynamic sequencing; recognition of N-terminal leucine
# Experimental: (§1) To illustrate how the kinetic parameters acquired from sequencing are sensitive to changes in sequence composition, sequencing was performed with a set of three peptides […] (SEQ ID NO: 798), […] (SEQ ID NO: 799), and […] (SEQ ID NO: 800)—that differ only at a single position, located immediately downstream from the PS961 N-terminal target leucine.
# (§2) The semiconductor chip was placed in the sequencing device and a chip check was performed to test electronic circuit function and to optimize laser coupling alignment. The chip was then removed from the device socket and the chip was washed twice with 50 μL of 70% isopropanol, followed by four washes with 30 μL of wash buffer (50 mM MOPS pH 8.0, 60 mM potassium acetate, 50 mM glucose, 20 mM magnesium acetate, and surfactant mix) through a flow cell attached to the chip. A second chip check was then performed. The laser was then blocked via an integrated software-controlled shutter, peptide complex was added to a final concentration of 1-10 nM and mixed thoroughly, and the chip was incubated for 15 min. The chip was then washed six times with wash buffer, followed by addition of an imaging solution (wash buffer with 5 mM Trolox and an oxygen scavenging system). The laser was unblocked and the occupancy percentage (target 10-30%, Poisson distributed) was recorded by acquiring a photobleaching signal from a fluorophore attached to the peptide complex during 5 min of laser illumination. For NAA recognition-only assays, after peptide loading, labeled recognizer was added to a final concentration of 50 nM PS610, 100 nM PS691, or 250 nM PS961 (as indicated according to the experiment), and data was recorded for 10 hours.
# [5] = molecular target: T5, … (SEQ ID NO: 799), state with …; assay: as above
# Experimental: as §1, §2
# [6] = molecular target: T6, … (SEQ ID NO: 800), state with …; assay: as above
# Experimental: as §1, §2
# [7] = molecular target: T7, synthetic peptide … (SEQ ID NO: 794), …; assay: single-molecule on-chip dynamic sequencing with PS610, PS961, PS691, PhTET2 and PhTET3
# Experimental: (§3) The transition from leucine to isoleucine recognition by PS961 is readily identified as a sharp change in average PD. This overall pattern is replicated across many instances of sequencing of the same peptide, with similar PD statistics across traces, as each peptide molecule follows the same reaction pathway over the course of the sequencing run (FIGS. 3B-3C).
# as §2, with “A second chip check was then performed. The laser was then blocked via an integrated software-controlled shutter, peptide complex was added to a final concentration of 1-10 nM and mixed thoroughly, and the chip was incubated for 15 min. The chip was then washed six times with wash buffer, followed by addition of an imaging solution (wash buffer with 5 mM Trolox and an oxygen scavenging system).” left out, “hours. […] Data was recorded for 15 min. […] The laser was then unblocked, and data was recorded for 10 hours.” for “hours.”
# [8] = molecular target: T8, synthetic peptide … (SEQ ID NO: 794), …; assay: as above
# Experimental: as §3
# as §2, with “A second chip check was then performed. The laser was then blocked via an integrated software-controlled shutter, peptide complex was added to a final concentration of 1-10 nM and mixed thoroughly, and the chip was incubated for 15 min. The chip was then washed six times with wash buffer, followed by addition of an imaging solution (wash buffer with 5 mM Trolox and an oxygen scavenging system).” left out, “hours. […] Data was recorded for 15 min. […] The laser was then unblocked, and data was recorded for 10 hours.” for “hours.”
binder,measurement,setting,value
B1,binding result,[1],binds
same,binding result,[2],no binding (tested: 250 nM PS961)
same,Kd,[3],947 nM
same,median pulse duration (PD),[4],1.29 s
same,median pulse duration (PD),[5],2.22 s
same,median pulse duration (PD),[6],4.21 s
same,binding result,[7],binds
same,binding result,[8],binds
